Measured values from patent US20150273076A1, “SP1 POLYPEPTIDES, MODIFIED SP1 POLYPEPTIDES AND USES THEREOF” (Fulcrum SP Ltd., priority 2006, published 2015).
Changes are numbered by the printed parent chain. Numbers in names are those of the source.

B1: Δ2-6 His2: SP1 variant Δ2-6 His2, SEQ ID NO:8 (protein)
chain: MHKLVKHTLLTRFKDEITREQIDNYINDYTNLLDLIPSMKSFNWGTDLGMESAELNRGYTHAFESTFESKSGLQEYLDSAALAAFAEGFLPTLSQRLVIDYFLY
modifications: Sp1 mutant variant His inserted into position 2 together with a deletion of amino acid 2-6
B2: 6H2: six histidine N-terminal tagged SP1, SEQ ID NO:7 (protein)
chain: MHHHHHHATRTPKLVKHTLLTRFKDEITREQIDNYINDYTNLLDLIPSMKSFNWGTDLGMESAELNRGYTHAFESTFESKSGLQEYLDSAALAAFAEGFLPTLSQRLVIDYFLY
B3: N31A T34A 6XH2: SP1 mutant N31A T34A 6XH2, SEQ ID NO:30 (protein)
chain: B2 chain with N37A, T40A
modifications: Sp1 mutant variant 6Xhis inserted into position 2, N31A and T34A mutated
B4: F106A 6XH2: SP1 mutant F106A 6XH2, SEQ ID NO:23 (protein)
chain: B2 chain with F112A
modifications: Sp1 mutant variant 6Xhis inserted into position 2 and F106A mutated
B5: S73A S75A 6XH2: SP1 mutant S73A S75A 6XH2, SEQ ID NO:28 (protein)
chain: B2 chain with S79A, S81A
modifications: Sp1 mutant variant 6Xhis inserted into position 2, S73A and S75A mutated
B6: D38A S75A 6XH2: SP1 mutant D38A S75A 6XH2, SEQ ID NO:29 (protein)
chain: B2 chain with D38A, D44A, S75A, S81A
modifications: Sp1 mutant variant 6Xhis inserted into position 2, D38A and S75A mutated
B7: Δ2-7 Cys2: SP1 variant Δ2-7 Cys2, SEQ ID NO:9 (protein)
chain: MCLVKHTLLTRFKDEITREQIDNYINDYTNLLDLIPSMKSFNWGTDLGMESAELNRGYTHAFESTFESKSGLQEYLDSAALAAFAEGFLPTLSQRLVIDYFLY
modifications: Sp1 mutant variant Cys inserted into position 2 together with a deletion of amino acid 2-7
B8: Δ2-6 I40C: SP1 Loop 2 modification Δ2-6 I40C, SEQ ID NO:18 (protein)
chain: B7 chain with C2K, I35C
modifications: Sp1 mutant variant amino acids 2-6 deleted and I40C mutated
B9: Δ2-6 L81C: SP1 variant Δ2-6 L81C, external perimeters of the dodecamer ring, SEQ ID NO:22 (protein)
chain: B7 chain with C2K, L76C
modifications: Sp1 mutant variant amino acids 2-6 deleted and L81C mutated
B10: HH2: SP1 N-terminus modification HH2, SEQ ID NO:4 (protein)
chain: MHHATRTPKLVKHTLLTRFKDEITREQIDNYINDYTNLLDLIPSMKSFNWGTDLGMESAELNRGYTHAFESTFESKSGLQEYLDSAALAAFAEGFLPTLSQRLVIDYFLY
modifications: Sp1 mutant variant 2X His inserted into position 2
B11: R23A: SP1 mutant R23A, SEQ ID NO:12 (protein)
chain: MATRTPKLVKHTLLTRFKDEITAEQIDNYINDYTNLLDLIPSMKSFNWGTDLGMESAELNRGYTHAFESTFESKSGLQEYLDSAALAAFAEGFLPTLSQRLVIDYFLY
modifications: Sp1 mutant variant R23A mutated
B12: D27A: SP1 mutant D27A, SEQ ID NO:13 (protein)
chain: B11 chain with A23R, D27A
modifications: Sp1 mutant variant D27A mutated
B13: I30A: SP1 mutant I30A, SEQ ID NO:14 (protein)
chain: B11 chain with A23R, I30A
modifications: Sp1 mutant variant I30A mutated
B14: N31A: SP1 mutant N31A, SEQ ID NO:15 (protein)
chain: B11 chain with A23R, N31A
modifications: Sp1 mutant variant N31A mutated
B15: Y108A: SP1 mutant Y108A, SEQ ID NO:24 (protein)
chain: B11 chain with A23R, Y108A
modifications: Sp1 mutant variant Y108A mutated
B16: D38A: SP1 mutant D38A, SEQ ID NO:17 (protein)
chain: B11 chain with A23R, D38A
modifications: Sp1 mutant variant D38A mutated
B17: T34A: SP1 mutant T34A, SEQ ID NO:16 (protein)
chain: B11 chain with A23R, T34A
modifications: Sp1 mutant variant T34A mutated
B18: E68A: SP1 mutant E68A, SEQ ID NO:19 (protein)
chain: B11 chain with A23R, E68A
modifications: Sp1 mutant variant E68A mutated

How the values were obtained:
[1] = Heat stability (no precipitation after heat treatment); settings: 10 min at 100° C. or 30 min at 85° C.
[2] = Protein melting point by DSC; assay type: physicochemical; settings: protein melting point by DSC; in °C (unit assumed)
Method: Differential scanning calorimetry study of SP1 indicates in a Tm of 107° C. for SP1. […] Further, folding and refolding of inclusion bodies including insoluble SP1, and the heat stability of the unfolded proteins indicate that the intact monomer, as well as the oligomer, is heat resistant (FIG. 5).

Row | Molecule | Heat stability [1] | Tm [2]
1 | B1 | + | –
2 | B2 | – | 109
3 | B3 | – | 96.6
4 | B4 | – | 75
5 | B5 | + | –
6 | B6 | + | 112
7 | B7 | + | –
8 | B8 | + | –
9 | B9 | + | –
10 | B10 | + | –
11 | B11 | + | 108
12 | B12 | + | –
13 | B13 | – | 98
14 | B14 | + | 110
15 | B15 | – | 68
16 | B16 | + | 113
17 | B17 | + | 114
18 | B18 | + | 105.8
